Experimental data published in US20250264471A1 (INDI MOLECULAR, published 2025).
Numbered stars: 1 amine (or outer) side, 2 acyl side, 3 side chain; on linkers, the order of the positions; unused ones are H or OH. Bridge positions count the residues as written; N and C are the ends. Square brackets hold non-standard residues; d marks the D form. Primed or numbered codes have the meaning given here. Ends that are not written are not given here. I, II: the chains in the order shown. * marks the point of attachment. Az8″ = 2-amino-10-azidodecanoic acid (azido amino acid), [N-]=[N+]=NCCCCCCCC[C@H](N[*:1])C(=O)[*:2]; Butanoyl(4-ethynyl) = C#CCCCC(=O)*; Biotin′ = not defined here; Pra = C#CC[C@H](N)C(=O)O; C8N3 = not defined here; 5HA = not defined here; Az8 = not defined here

Tests used:
[1] = target: T1, Akt1-S473E (H. sapiens, UniProt P31749 118-480 (human entry)); test: ELISA: Akt-S473E on Ni-NTA plate, biotinylated peptide titrated, SA-HRP
T1 construct: Partially active Akt1 kinase domain expressed in Hi5 insect cells from pVLAKT.2; also called Akt-S473E; AktS473E
T1 chain: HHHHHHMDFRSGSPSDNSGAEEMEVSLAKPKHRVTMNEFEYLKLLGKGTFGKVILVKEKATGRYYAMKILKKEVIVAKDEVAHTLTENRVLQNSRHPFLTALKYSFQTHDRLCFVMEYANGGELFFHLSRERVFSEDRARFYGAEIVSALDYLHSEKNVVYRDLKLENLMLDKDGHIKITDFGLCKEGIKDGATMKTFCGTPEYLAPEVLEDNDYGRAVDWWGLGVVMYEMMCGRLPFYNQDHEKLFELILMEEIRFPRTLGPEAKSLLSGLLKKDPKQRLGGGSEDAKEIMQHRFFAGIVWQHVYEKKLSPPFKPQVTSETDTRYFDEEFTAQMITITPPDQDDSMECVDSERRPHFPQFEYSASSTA
Protocol: 3 μg of Akt-S473E was added to each well in a HisSorb Ni-NTA plate (Qiagen) in 50 μL of ELISA blocking buffer (25 mM Tris-CI (pH=7.5), 150 mM NaCl, 10 mM MgCl₂, 0.1% (v/v) Tween-20, and 4 mg/mL BSA). 50 μL of imidazole blocking buffer (25 mM Tris-CI (pH=7.5), 150 mM NaCl, 10 mM MgCl₂, 0.1% (v/v) Tween-20, 100 mM imidazole, and 4 mg/mL BSA) was added to the control wells. After 18 hours at 4° C., the wells were washed with ELISA blocking buffer and 50 μL of each ligand dilution was added in ELISA blocking buffer. The ligands were bound at 4° C. for 120 minutes followed by three washed in ELISA blocking buffer. 50 μL of horseradish peroxidase-conjugated streptavidin (SA-HRP, Thermo) was added (1:5000 dilution in ELISA blocking buffer) and incubated for 70 minutes at 4° C. The wells were washed three times in TBST (Tris-buffered saline+0.2% Tween-20) and once in TBS (Tris-buffered saline). 50 μL of peroxidase substrate (KPL) was added to generate the final signal which was quenched in 1 M H₂SO₄ and quantitated on a 96-well plate reader at λ=450 nm. The Net A450 was calculated by subtracting the A450 of each blank well (No Akt-S473E) from the experimental well. The data were fit by non-linear regression in GraphPad Prism.

[2] = target: T2, Akt1-S473E-T308P (H. sapiens, UniProt P31749 118-480 (human entry), phosphorylated at residue T308 (phosphothreonine)); test: kinase kinetics, Dixon plot of 1/v vs. [Triligand] with varying [ATP]; noncompetitive
T2 construct: Fully active kinase; T308P means phospho-T308, not a proline substitution; Same construct as Akt1-S473E; also called Akt-S473E-T308P; Akt-S473E/T308P
T2 chain: T1 chain
Protocol: To determine the inhibition mode of the triligand with respect to the ATP, kinase reactions were set up with increasing concentrations of ATP. The reactions were set up in a similar manner to that described above. The concentration of Biotin-Crosstide was held constant at 25 μM and the concentration of enzyme was held at […]. The concentration of ATP ranged from 125 μM to 4 μM (125 μM, 63 μM, 32 μM, 16 μM, 8 μM, 4 μM) while the concentration of triligand varied from 0 to 10 μM (0, 1 μM, 5 μM, 10 μM). [γ-³²P]-ATP (7000 Ci/mmol, 10 μCi/μL) was added to the cold ATP stock to maintain an [ATP]ₜₒₜₐₗ/[γ-³²P]-ATP ratio of 1667. The reactions were incubated, quenched, and analyzed as described above.
KM and Vₘₐₓ values for Akt1-S473ET308P were obtained by nonlinear regression from the results of the inhibition experiments (GraphPad). The literature values for the Michaelis constants for ATP and substrate peptide were taken from Klein 2005. The triligand Kᵢ (noncompetitive inhibition) was obtained from the negative X-intercept of the Dixon plot of 1/v vs. [Triligand] with varying [ATP]. The Kᵢ is the mean value of the observed X-intercepts and the error range is the standard deviation. The triligand K_{i′}, (uncompetitive inhibition) was obtained from the intercept of the Dixon plot of 1/v vs. [Triligand] with varying [Peptide]. […]

[3] = target: T1, Akt1-S473E; test: SPR (Biacore T100): biotinylated triligand on streptavidin chip, Akt1-S473E 9000 nM to 1 nM as analyte, 10 °C, from kinetic constants
Protocol: For this experiment, the biotinylated triligand was immobilized on a streptavidin-derivatized biacore chip and probed with Akt-S473E at concentrations ranging from 9 μM to 1 nM.
Triligand binding affinity was further analyzed by SPR using a Biacore T100. A Streptavidin Chip (Series S, G.E. Healthcare) was conditioned as recommended by the manufacturer. Biotinylated ligand was diluted into HBSP+ Buffer (G.E. Healthcare) to a final concentration of 100 nM and 137 RU was immobilized on the chip. Akt1-S473E was prepared as described previously and subjected to buffer exchange into HBSP+using Zeba Desalting Columns (Pierce). Serial dilutions of the enzyme were made in HBSP+ buffer (9000 nM to 1 nM) and flowed over the chip at 50 μL/minute. Binding and dissociation were carried out at 10° C. with a contact time of 360 seconds, a dissociation time of 400 seconds, and a stabilization time of 200 seconds. The response was corrected using an unmodified reference flow cell. Kinetic constants were obtained from the sensograms and used to calculate the dissociation constant.

[4] = target: T1, Akt1-S473E; test: ELISA

B1: 5HA-Biligand-Bio (Akt biligand) (designed binder)
peptide 1: {Butanoyl(4-ethynyl)-Az8}-VFYRLGY-biotin
peptide 2: Ac-[Pra]FWFLRG-NH2
modifications: triazole II:N-II:1; reading uncertain; also: mixture of diastereomers
notes: Branched peptide, mixture of diastereomers; also called biotinylated biligand
- fold improvement in affinity relative to the anchor peptide [1]: > 100 fold

B2: Akt triligand (biotinylated) (designed binder)
peptide 1: {5HA-C8N3}-VFYRLGY-{Biotin′}
peptide 2: Ac-[Pra]FWFLRG-NH2
peptide 3: {Ac-C8N3}-RHERI-NH2
modifications: triazole II:N-II:1; reading uncertain; also: triazole to a chain's N-terminus
notes: Assembled from 5HA-Biligand-Bio and Ac-C8N3-RHERI-CONH2; also called branched triligand
- Ki [2]: 4 µM
- Kd [3]: 0.2 µM

B3: biotinylated anchor ligand Az8-VFYRLGY-Biotin (peptide)
peptide: [Az8″]VFYRLGY-biotin
notes: also called anchor peptide; biotinylated anchor peptide
- Kd [4]: 25 µM
